Experimental data as given in patent US20260216242A1, “ALPP-SPECIFIC VARIANT ANTIGEN BINDING MOLECULES” (ALMAC DISCOVERY LIMITED, priority 2022, published 2026).

How the values were obtained:
[1] = molecular target: T1, ALPP expressed on the surface of CHO cells (CHO-ALPP) (Homo sapiens, UniProt P05187); test: Cell-surface binding by flow cytometry, CHO-ALPP; conditions: VHH proteins
T1 construct: expressed in transfected cells
Protocol: (§1) C-terminal His tagged VHH proteins were assessed for ALPP, ALPPL2, ALPI and ALPL cell-surface binding by flow cytometry. Binders encompassing different epitope bins were screened on CHO cells stably expressing ALPP, ALPPL2, ALPI or ALPL. High levels of cell-surface proteins expression were confirmed for each of the cell-lines by flow cytometry.
(§2) Cell surface binding of test agents to hALPP isoforms was characterized in four CHO-ALPP isoform stably transfected cell lines (CHO-ALPP, CHO-ALPPL2, CHO-ALPI and CHO-ALPL) and the resulting KDapp values determined. Adherent cells were detached from tissue culture flasks by incubating with 0.1% EDTA/PBS solution at 37° C. for ~10 minutes or until cells detached easily. […] Binding of VHH (His6 tagged) agents was determined by adding 100 μl of anti-x6His tag Ab (Abcam) per cell pellet sample as appropriate and incubating on ice for 30 mins. […]
(§3) VHH-hFc proteins were assessed for human ALPP, ALPPL2, ALPI and ALPL cell-surface binding by flow cytometry. […]
(§4) Cell surface binding of test agents to hALPP isoforms was characterized in four CHO-ALPP isoform transfectant cell lines (CHO-ALPP, CHO-ALPPL2, CHO-ALPI and CHO-ALPL) and the resulting KDapp values determined. […] Binding of VHH-hFc agents was determined by adding 100 μl of Fitc-anti-human Ab (ThermoFisher) and incubating for 30 mins on ice in the dark. […]

[2] = molecular target: T2, ALPPL2 expressed on the surface of CHO cells (CHO-ALPPL2) (Homo sapiens, UniProt P10696); test: Cell-surface binding by flow cytometry, CHO-ALPPL2; conditions: VHH His proteins
T2 construct: expressed in transfected cells
T2 sequence (P10696 20-503 limits assumed): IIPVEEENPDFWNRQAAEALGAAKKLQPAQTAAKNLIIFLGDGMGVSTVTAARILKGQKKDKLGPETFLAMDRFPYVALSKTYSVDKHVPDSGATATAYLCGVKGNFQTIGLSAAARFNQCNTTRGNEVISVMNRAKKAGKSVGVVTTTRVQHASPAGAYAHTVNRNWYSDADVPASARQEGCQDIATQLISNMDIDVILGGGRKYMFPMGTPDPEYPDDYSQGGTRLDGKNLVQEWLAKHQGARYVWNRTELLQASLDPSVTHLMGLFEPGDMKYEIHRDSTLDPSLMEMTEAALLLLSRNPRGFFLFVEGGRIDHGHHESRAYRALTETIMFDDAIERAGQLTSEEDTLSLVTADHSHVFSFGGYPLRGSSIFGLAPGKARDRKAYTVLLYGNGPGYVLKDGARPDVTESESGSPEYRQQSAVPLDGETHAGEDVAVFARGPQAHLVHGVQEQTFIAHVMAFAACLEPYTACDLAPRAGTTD
Protocol: as §1, §2, §3, §4

T1 sequence (P05187 23-506 limits assumed): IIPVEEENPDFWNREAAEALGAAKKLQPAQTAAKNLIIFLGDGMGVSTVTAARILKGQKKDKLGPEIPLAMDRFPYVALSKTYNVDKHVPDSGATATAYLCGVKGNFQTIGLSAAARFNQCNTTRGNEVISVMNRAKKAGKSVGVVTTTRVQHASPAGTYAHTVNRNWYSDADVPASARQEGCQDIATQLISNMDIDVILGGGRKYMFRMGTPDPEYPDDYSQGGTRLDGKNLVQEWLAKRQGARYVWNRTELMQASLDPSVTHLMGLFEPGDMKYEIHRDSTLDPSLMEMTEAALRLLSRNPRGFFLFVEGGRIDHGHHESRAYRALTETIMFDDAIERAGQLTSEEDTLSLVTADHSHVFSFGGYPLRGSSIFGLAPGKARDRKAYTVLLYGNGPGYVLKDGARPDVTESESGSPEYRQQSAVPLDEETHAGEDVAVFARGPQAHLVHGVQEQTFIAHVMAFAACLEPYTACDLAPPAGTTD

B1: D10: ALPP targeting VHH domain, SEQ ID NO: 28 (protein)
VHH: QVQLVESGGGLVQPGGSLRLSCAASGSIFSVNTMGWYRQAPGKQRDLVAVATSGGTIHYADSVKGRFTISRDNAKNTVYLQMNSLKPEDTAVYYCNLVVPYGMIAGDHDYWGQGTKVTVSS
- binding preference ALPP versus ALPPL2 on CHO cells [1]: preferential binding to ALPP over ALPPL2
- KDapp CHO-ALPPL2 [2]: Binding
